Results reported in the supplement of paper PMC9112550, “Optimization of the antimicrobial peptide Bac7 by deep mutational scanning” (BMC Biology, 2022).

The sequences below were run on Escherichia coli TOP10 (assay: shrunken log2 fold change of peptide-encoding DNA abundance (4.5 h post-induction vs induction); higher = less antimicrobial activity (less host growth inhibition)). Details: time post-induction: 4.5 h; library: site-saturation at positions 5, 18, 19, 20.
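Further: peptides expressed intracellularly from a pBAD plasmid library in pooled LB shake-flask culture, induced with 0.3% L-arabinose, DNA abundance read by NGS, three biological replicates, DESeq2 with apeglm shrinkage.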

| Sequence | shrunken log2 fold change |
| --- | --- |
| RRIRSRPPRLPRPRPRPNCFPRP | 0.0876 |
| RRIRFRPPRLPRPRPRPRKDPRP | -0.302 |
| RRIRERPPRLPRPRPRPTPKPRP | 0.525 |
| RRIRSRPPRLPRPRPRPRNAPRP | 0.374 |
| RRIRQRPPRLPRPRPRPQNWPRP | 0.0213 |
| RRIRFRPPRLPRPRPRPTMEPRP | -0.266 |
| RRIRHRPPRLPRPRPRPIDAPRP | -0.105 |
| RRIRARPPRLPRPRPRPPINPRP | -0.192 |
| RRIRTRPPRLPRPRPRPHIEPRP | -0.0284 |
| RRIRERPPRLPRPRPRPNTCPRP | -1.13 |
| RRIRCRPPRLPRPRPRPFATPRP | 0.287 |
| RRIRKRPPRLPRPRPRPWICPRP | 0.044 |
| RRIRKRPPRLPRPRPRPRIFPRP | -0.0494 |
| RRIRTRPPRLPRPRPRPSWKPRP | -0.124 |
| RRIRIRPPRLPRPRPRPGVGPRP | 0.435 |
| RRIRWRPPRLPRPRPRPKPAPRP | 0.605 |
| RRIRWRPPRLPRPRPRPYANPRP | -0.399 |
| RRIRPRPPRLPRPRPRPKNKPRP | -0.187 |
| RRIRYRPPRLPRPRPRPRRYPRP | -0.492 |
| RRIRIRPPRLPRPRPRPQEDPRP | -0.0165 |
| RRIRARPPRLPRPRPRPEKCPRP | -0.15 |
| RRIRKRPPRLPRPRPRPHDAPRP | 0.437 |
| RRIRHRPPRLPRPRPRPHDRPRP | -0.218 |
| RRIRLRPPRLPRPRPRPAYEPRP | 2.25 |
| RRIRERPPRLPRPRPRPDAMPRP | -0.0916 |

| Sequence | shrunken log2 fold change |
| --- | --- |
| RRIRGRPPRLPRPRPRPTFPPRP | 0.347 |
| RRIRRRPPRLPRPRPRPPDDPRP | 0.743 |
| RRIRARPPRLPRPRPRPVRRPRP | 0.723 |
| RRIRWRPPRLPRPRPRPKCKPRP | 0.0552 |
| RRIRVRPPRLPRPRPRPIGDPRP | 0.0238 |
| RRIRFRPPRLPRPRPRPLWTPRP | -0.0265 |
| RRIRARPPRLPRPRPRPNPIPRP | -0.19 |
| RRIRCRPPRLPRPRPRPHWDPRP | -0.306 |
| RRIRCRPPRLPRPRPRPTWQPRP | 0.288 |
| RRIRCRPPRLPRPRPRPISSPRP | -0.0694 |
| RRIRYRPPRLPRPRPRPQPTPRP | 0.0156 |
| RRIRWRPPRLPRPRPRPKRAPRP | 0.797 |
| RRIRMRPPRLPRPRPRPFYIPRP | -0.31 |
| RRIRYRPPRLPRPRPRPWYLPRP | -0.268 |
| RRIRHRPPRLPRPRPRPFISPRP | -0.387 |
| RRIRFRPPRLPRPRPRPRIIPRP | -0.514 |
| RRIRLRPPRLPRPRPRPTFPPRP | 0.131 |
| RRIRKRPPRLPRPRPRPSEEPRP | 0.1 |
| RRIRDRPPRLPRPRPRPKPNPRP | 0.45 |
| RRIRCRPPRLPRPRPRPVAYPRP | -0.232 |
| RRIRYRPPRLPRPRPRPSQLPRP | -0.506 |
| RRIRKRPPRLPRPRPRPVTGPRP | -0.0771 |
| RRIRHRPPRLPRPRPRPDINPRP | -0.0579 |
| RRIRMRPPRLPRPRPRPVLYPRP | -0.0553 |
| RRIRKRPPRLPRPRPRPQAVPRP | 0.0562 |

| Sequence | shrunken log2 fold change |
| --- | --- |
| RRIRWRPPRLPRPRPRPSNSPRP | -0.498 |
| RRIRIRPPRLPRPRPRPTHKPRP | 0.201 |
| RRIRKRPPRLPRPRPRPVCRPRP | 0.245 |
| RRIRKRPPRLPRPRPRPQKIPRP | -0.0746 |
| RRIRTRPPRLPRPRPRPLHCPRP | -0.148 |
| RRIRRRPPRLPRPRPRPAVEPRP | -0.0125 |
| RRIRTRPPRLPRPRPRPRWSPRP | 0.0798 |
| RRIRPRPPRLPRPRPRPTQRPRP | 0.369 |
| RRIRVRPPRLPRPRPRPIPWPRP | -0.232 |
| RRIRARPPRLPRPRPRPMEWPRP | 0.259 |
| RRIRCRPPRLPRPRPRPRRCPRP | 0.42 |
| RRIRTRPPRLPRPRPRPKEVPRP | -0.0117 |
| RRIRSRPPRLPRPRPRPIQYPRP | -0.383 |
| RRIRRRPPRLPRPRPRPELQPRP | 0.212 |
| RRIRPRPPRLPRPRPRPPLVPRP | 0.389 |
| RRIRHRPPRLPRPRPRPQFSPRP | -0.139 |
| RRIRFRPPRLPRPRPRPDLAPRP | 0.0811 |
| RRIRMRPPRLPRPRPRPLQTPRP | 3.06 |
| RRIRHRPPRLPRPRPRPESYPRP | -0.012 |
| RRIRDRPPRLPRPRPRPYLFPRP | 1.15 |
| RRIRWRPPRLPRPRPRPERGPRP | 0.683 |
| RRIRKRPPRLPRPRPRPAKTPRP | 0.0104 |
| RRIRCRPPRLPRPRPRPYTTPRP | -0.97 |
| RRIRHRPPRLPRPRPRPVCDPRP | -0.41 |
| RRIRQRPPRLPRPRPRPAATPRP | 0.732 |

| Sequence | shrunken log2 fold change |
| --- | --- |
| RRIRQRPPRLPRPRPRPPMIPRP | 0.0721 |
| RRIRVRPPRLPRPRPRPEYGPRP | -0.00905 |
| RRIRVRPPRLPRPRPRPQYNPRP | -0.851 |
| RRIRDRPPRLPRPRPRPCGVPRP | 0.0765 |
| RRIRRRPPRLPRPRPRPVKTPRP | 0.05 |
| RRIRIRPPRLPRPRPRPGSVPRP | -0.258 |
| RRIRFRPPRLPRPRPRPTIGPRP | -0.0631 |
| RRIRLRPPRLPRPRPRPRWRPRP | 0.463 |
| RRIRKRPPRLPRPRPRPVMDPRP | -0.0489 |
| RRIRKRPPRLPRPRPRPTHMPRP | 0.37 |
| RRIRYRPPRLPRPRPRPIVDPRP | -0.268 |
| RRIRKRPPRLPRPRPRPAIVPRP | 0.0885 |
| RRIRHRPPRLPRPRPRPPKMPRP | -0.0472 |
| RRIRKRPPRLPRPRPRPIPGPRP | -0.0379 |
| RRIRHRPPRLPRPRPRPVGRPRP | 0.226 |
| RRIRKRPPRLPRPRPRPSQWPRP | 0.144 |
| RRIRLRPPRLPRPRPRPYLFPRP | -0.602 |
| RRIRRRPPRLPRPRPRPIICPRP | 0.0738 |
| RRIRHRPPRLPRPRPRPTKKPRP | -0.0507 |
| RRIRMRPPRLPRPRPRPSIHPRP | -0.823 |
| RRIRQRPPRLPRPRPRPHTLPRP | -0.263 |
| RRIRHRPPRLPRPRPRPCMPPRP | 0.0401 |
| RRIRGRPPRLPRPRPRPQPIPRP | 0.114 |
| RRIRGRPPRLPRPRPRPVDFPRP | 0.408 |
| RRIRCRPPRLPRPRPRPVNTPRP | -0.259 |

| Sequence | shrunken log2 fold change |
| --- | --- |
| RRIRVRPPRLPRPRPRPAFIPRP | 0.00175 |
| RRIRMRPPRLPRPRPRPSNYPRP | -0.078 |
| RRIRRRPPRLPRPRPRPVRCPRP | 0.424 |
| RRIRPRPPRLPRPRPRPPIIPRP | -0.231 |
| RRIRWRPPRLPRPRPRPPNTPRP | 0.142 |
| RRIRCRPPRLPRPRPRPAVDPRP | 0.449 |
| RRIRERPPRLPRPRPRPCPSPRP | -0.115 |
| RRIRMRPPRLPRPRPRPWCCPRP | 0.0172 |
| RRIRSRPPRLPRPRPRPSITPRP | -0.392 |
| RRIRQRPPRLPRPRPRPEFDPRP | 0.00351 |
| RRIRIRPPRLPRPRPRPEQAPRP | 0.1 |
| RRIRKRPPRLPRPRPRPSMNPRP | -0.00473 |
| RRIRLRPPRLPRPRPRPSRVPRP | 0.00872 |
| RRIRIRPPRLPRPRPRPEYTPRP | 0.0624 |
| RRIRLRPPRLPRPRPRPFADPRP | 0.0979 |
| RRIRMRPPRLPRPRPRPPNLPRP | 0.0707 |
| RRIRFRPPRLPRPRPRPCPSPRP | -0.0894 |
| RRIRNRPPRLPRPRPRPMFCPRP | 0.0294 |
| RRIRFRPPRLPRPRPRPAHTPRP | -0.282 |
| RRIRCRPPRLPRPRPRPRIMPRP | -0.293 |
| RRIRNRPPRLPRPRPRPPGQPRP | 0.0465 |
| RRIRDRPPRLPRPRPRPHLIPRP | -0.0328 |
| RRIRKRPPRLPRPRPRPGDEPRP | 0.128 |
| RRIRPRPPRLPRPRPRPSEIPRP | -0.261 |
| RRIRHRPPRLPRPRPRPGGSPRP | -0.0606 |

| Sequence | shrunken log2 fold change |
| --- | --- |
| RRIRARPPRLPRPRPRPAPMPRP | 0.799 |
| RRIRDRPPRLPRPRPRPLAYPRP | 0.0112 |
| RRIRKRPPRLPRPRPRPRQRPRP | 1.57 |
| RRIRARPPRLPRPRPRPPYWPRP | 0.376 |
| RRIRLRPPRLPRPRPRPVIFPRP | -0.141 |
| RRIRWRPPRLPRPRPRPSIEPRP | 0.0114 |
| RRIRMRPPRLPRPRPRPHVEPRP | 0.00707 |
| RRIRLRPPRLPRPRPRPCNQPRP | -1.15 |
| RRIRLRPPRLPRPRPRPCYCPRP | -0.219 |
| RRIRNRPPRLPRPRPRPYKVPRP | -0.324 |
| RRIRCRPPRLPRPRPRPMGTPRP | -0.159 |
| RRIRHRPPRLPRPRPRPEVMPRP | -0.0878 |
| RRIRERPPRLPRPRPRPRIAPRP | -0.246 |
| RRIRIRPPRLPRPRPRPFCRPRP | 0.087 |
| RRIRRRPPRLPRPRPRPDHTPRP | -0.447 |
| RRIRCRPPRLPRPRPRPRIEPRP | -0.205 |
| RRIRVRPPRLPRPRPRPDEYPRP | 0.0327 |
| RRIRRRPPRLPRPRPRPHNYPRP | 0.103 |
| RRIRMRPPRLPRPRPRPDFEPRP | 0.589 |
| RRIRFRPPRLPRPRPRPAVWPRP | 0.402 |
| RRIRIRPPRLPRPRPRPHYQPRP | -0.463 |
| RRIRSRPPRLPRPRPRPVNIPRP | -0.261 |
| RRIRQRPPRLPRPRPRPNQHPRP | 0.0696 |
| RRIRSRPPRLPRPRPRPDNFPRP | -0.299 |
| RRIRHRPPRLPRPRPRPWDKPRP | -0.000233 |
